# According to patent US9284369B2, “Inhibition of angiogenesis” (Genentech, Inc., priority 2007, dated 2016):
# B1: G-CSF: recombinant granulocyte-CSF: mouse or human (R&D Systems) or human Neupogen (Amgen) (protein, chains of the INN, looked up)
# chain: MTPLGPASSLPQSFLLKCLEQVRKIQGDGAALQEKLCATYKLCHPEELVLLGHSLGIPWAPLSSCPSQALQLAGCLSQLHSGLFLYQGLLQALEGISPELGPTLDTLQLDVADFATTIWQQMEELGMAPALQPTQGAMPAFASAFQRRAGGVLVASHLQSFLEVSYRVLRHLAQP
# How the values were obtained:
# CD11b+Gr1+ cells = assay: G-CSF-induced mobilization of CD11b+Gr1+ cells; format: in vivo, mouse; conditions: sub-maximal dose 2 μg, within six hours
# Procedure: To determine the role of Bv8 in G-CSF-induced mobilization of CD11b+Gr1+ cells, Balb/c nude mice received two doses of anti-Bv8 antibodies (5+5 mg/kg), 12 hours apart, followed by mouse G-CSF (R&D Systems; 2 μg/mouse) fours hours after the second dose of Mab. As a positive control, we used a rat anti-mouse G-CSF Mab (Mab414, R&D Systems; 10 μg/mouse) given at the same interval as anti-Bv8, followed by mouse G-CSF. After six hours, mice were bled and the frequency of CD11b+Gr1+ cells was determined as described. To determine the role of G-CSF in regulating Bv8 expression in the absence of tumor, Balb/c nude mice were given daily i.p. injections of control rat IgG (Genentech) or rat anti-G-CSF Mab (Mab414, R&D Systems, 10 μg/mouse) for eight consecutive days. Animals were euthanized and total proteins were extracted from BMMNCs. Bv8 levels were measured by ELISA, as described. To assess the significance of G-CSF in regulating Bv8 expression in tumors, Balb/c nude mice were pretreated with 10 μg of rat anti-G-CSF Mab or rat IgG as above described, followed after 12 hours by implantation with HM7 cells (5×10^6 per mouse). Controls were implanted with empty Matrigel™. Animals then received daily administration of antibodies for two days. Forty-eight hours after Matrigel™ or tumor implantation, mice were euthanized and Bv8 levels in BMMNCs were measured as described above.
# Bv8 expression [1] = assay: Regulation of Bv8 gene expression in cultured human blood and bone marrow cells (Taqman); format: cell-based
# Procedure: RNA was prepared using the RNeasy™ Mini Kit (Qiagen). 50 ng total RNA per reaction was used for the real time PCR (Taqman) analysis. For human Bv8, testis RNA (BD Biosciences) served as control. Reactions were run on 9600 Emulation mode of 7500 Real time PCR system (Applied Biosystems, Foster City, Calif.) and the absolute quantification with standard curve was used with Sequence Detection System (SDS) software. The expression level of each gene was further quantified relative to the housekeeping gene RPL19 in the same sample. The sequences of Taqman primers are as follows: Human Bv8 forward: ATG GCA CGG AAG CTA GGA (SEQ ID NO: 10), reverse: GCAGAGCTGAAGTCCTCTTGA (SEQ ID NO: 11), probe: TGCTGCTGGACCCTTCCTAAACCT (SEQ ID NO: 12); Human RPL19 forward: CGC AAG CGC CGT GAA (SEQ ID NO: 28), reverse: GGTCTCTTCCTCCTTGGATAAAGTC (SEQ ID NO: 29), probe: CCAGGCCAAGAAGGAGGAGATCATCA (SEQ ID NO: 30). Human specific VEGF forward: AAT GAC GAG GGC CTG GAG T (SEQ ID NO: 31), reverse: TTGATCCGCATAATCTGCATG (SEQ ID NO: 32), probe: TGTGCCCACTGAGGAGTCCAACATCA (SEQ ID NO: 33).
# Recombinant human MCP-1, MIP-1α, MIP-1β, MIP-2, bFGF, VEGF, GM-CSF, G-CSF, SDF-1α, M-CSF, Erythropoietin (EPO) and TNFα were purchased from R&D Systems (Minneapolis, Minn.). Recombinant human IL-8, IFNγ, Bv8 (Prokineticin-2), IL-4, IL-10, IL-13, TGF-β were from PeproTech Inc. (Rocky Hill, N.J.). SCF (Stem Cell factor) was from Invitrogen Biosource (Carlsbad, Calif.). In some cases, G-CSF from Amgen (Neupogen/Filgrastim) was used. All cytokines were used at 10 ng/ml. Freshly purified cells were washed and re-suspended in HBSS media containing 0.2% BSA (low endotoxin, Serologicals Corp. Norcross, Ga.). Two million cells were incubated in 24-well plates with various cytokines and chemokines for 4 hr at 37° C. in a 5% CO2 incubator. Cells were then transferred into eppendorf tubes, centrifuged and lysed with RNA lysis buffer (Qiagen, Valencia, Calif.). Bv8 expression was assessed by Taqman with RPL19 (Ribosomal Protein L19) as the internal control gene.
# Bv8 expression [2] = assay: Bv8 expression in human leukemia cell lines; format: cell-based
# Procedure: U937, HL-60, THP-1, Hel 92.1.7, KG-1, K562, Jurkat cells were obtained from the ATCC® (Manassas, Va.). Most cells were grown in 10% FBS-containing RPMI. KG-1 cells were grown in 20% FBS-containing Iscove's modified Dulbecco's medium. For THP-1 cells, 10% FBS-containing RPMI was used with Sodium Pyruvate, HEPES and β-mercaptoethanol. For regulation studies, 1 million cells with viability higher than 95% were used. Regulation studies were performed under both normoxia and hypoxia conditions for 4 hr in 1 ml HBSS media containing 0.2% BSA.
# Bv8 expression [3] = conditions: previously reported; cited from earlier work
molecule,measurement,setting,value
B1,mobilization of CD11b+Gr1+ to the peripheral blood,CD11b+Gr1+ cells,significant mobilization
same,Bv8 expression in monocytes and lymphocytes,"Bv8 expression [1]; 10 ng/ml, 4 hr",did not show any change
same,induction of Bv8 expression in human neutrophils and whole bone marrow cells,"Bv8 expression [1]; 10 ng/ml, 4 hr",7 fold
same,range of induction of Bv8 expression,"Bv8 expression [1]; 10 ng/ml, 4 hr",6-12 fold
same,duration of Bv8 mRNA induction,Bv8 expression [1]; data not shown,up to 24 hr
same,Bv8 expression in HL-60,Bv8 expression [2],Neither G-CSF nor GM-CSF affected Bv8 expression
same,increase in Bv8 expression in several leukemia cell lines,"Bv8 expression [2]; 10 ng/ml, 4 hr",2-3 fold
same,up-regulation of Bv8 expression in mouse bone marrow cells and peripheral neutrophils,Bv8 expression [3],> 30 fold
